# What was measured:
# [1] = tested on: mono-ADP-ribosylated HNP-1
# [2] = tested on: human neutrophil peptide-1 (HNP-1)
# human neutrophil peptide-1 (HNP-1), sequence (chain, as listed by the source): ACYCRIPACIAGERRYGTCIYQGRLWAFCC
# mono-ADP-ribosylated HNP-1, sequence (chain, as listed by the source): as above
substance,measurement,setting,value
manganese-activated arginase,ornithine formation by arginase (amino acid analysis and MS),[1],Identification of the products by amino acid analysis and MS identified ornithine only in the reaction that contained free arginine
same,ornithine formation by arginase (amino acid analysis and MS),[2],Identification of the products by amino acid analysis and MS identified ornithine only in the reaction that contained free arginine
